Measured values taken from article PMC8225859.

Molecular target: Low-density lipoprotein receptor-related protein 1 (LRP1) (mouse (endogenous in gonadal fat tissue))

glucose uptake in 3T3-L1 mature adipocytes treated with 0, 0.5, 1, 2 uM r-m-APOA4 for 1 h; percent increase against buffer (~22% at 0.5 uM, ~34% at 1 uM, ~44% at 2 uM): 44%
B1: Apolipoprotein A4 (APOA4) in gonadal fat tissue of WT mice injected with recombinant mouse APOA4 (natural protein)
chain: EVTSDQVANVVWDYFTQLSNNAKEAVEQFQKTDVTQQLSTLFQDKLGDASTYADGVHNKLVPFVVQLSGHLAQETERVKEEIKKELEDLRDRMMPHANKVTQTFGENMQKLQEHLKPYAVDLQDQINTQTQEMKLQLTPYIQRMQTTIKENVDNLHTSMMPLATNLKDKFNRNMEELKGHLTPRANELKATIDQNLEDLRRSLAPLTVGVQEKLNHQMEGLAFQMKKNAEELQTKVSAKIDQLQKNLAPLVEDVQSKVKGNTEGLQKSLEDLNRQLEQQVEEFRRTVEPMGEMFNKALVQQLEQFRQQLGPNSGEVESHLSFLEKSLREKVNSFMSTLEKKGSPDQPQALPLPEQAQEQAQEQAQEQVQPKPLES
